In patent publication US20060094079A1 one finds platelet binding on collagen type III coated surface pretreated with Saratin, whole human blood under flow (shear rate 1300 s-1) and reduction in platelet deposition on collagen type III coated coverslips data, which are given here for one substance.

The assay addresses Human placental collagen, type III (Sigma) (human) (UniProt P02461). As to the kind of experiment: cell-based or functional assay.
Sequence of UniProt P02461 (P02461 154-1221): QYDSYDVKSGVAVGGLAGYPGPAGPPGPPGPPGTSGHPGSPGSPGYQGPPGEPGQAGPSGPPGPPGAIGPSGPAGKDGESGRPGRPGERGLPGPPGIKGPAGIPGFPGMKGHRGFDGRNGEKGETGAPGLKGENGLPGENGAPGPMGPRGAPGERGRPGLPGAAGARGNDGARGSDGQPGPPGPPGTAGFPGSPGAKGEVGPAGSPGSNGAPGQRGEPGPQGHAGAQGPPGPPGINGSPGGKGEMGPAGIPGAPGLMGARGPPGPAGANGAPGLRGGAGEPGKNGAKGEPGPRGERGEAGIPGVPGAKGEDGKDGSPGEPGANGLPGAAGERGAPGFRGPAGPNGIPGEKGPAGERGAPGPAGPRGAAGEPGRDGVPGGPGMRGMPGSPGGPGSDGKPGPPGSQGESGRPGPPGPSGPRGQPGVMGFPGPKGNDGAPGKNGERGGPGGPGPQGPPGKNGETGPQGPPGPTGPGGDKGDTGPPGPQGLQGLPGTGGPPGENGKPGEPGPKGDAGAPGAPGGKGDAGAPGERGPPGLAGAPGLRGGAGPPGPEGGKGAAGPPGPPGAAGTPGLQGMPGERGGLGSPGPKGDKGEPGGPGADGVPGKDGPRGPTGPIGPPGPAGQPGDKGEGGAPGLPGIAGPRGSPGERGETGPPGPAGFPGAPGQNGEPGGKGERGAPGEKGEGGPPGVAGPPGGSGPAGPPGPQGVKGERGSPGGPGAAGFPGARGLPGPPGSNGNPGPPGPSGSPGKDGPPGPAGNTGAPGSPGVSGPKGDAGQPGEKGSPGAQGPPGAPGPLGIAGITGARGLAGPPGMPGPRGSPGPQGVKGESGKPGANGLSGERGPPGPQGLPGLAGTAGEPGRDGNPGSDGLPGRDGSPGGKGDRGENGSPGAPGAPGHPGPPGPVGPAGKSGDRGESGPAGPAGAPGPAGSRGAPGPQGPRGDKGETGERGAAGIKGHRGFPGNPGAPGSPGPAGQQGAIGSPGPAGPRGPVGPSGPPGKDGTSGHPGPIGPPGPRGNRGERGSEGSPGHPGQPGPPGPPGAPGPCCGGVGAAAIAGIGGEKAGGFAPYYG

As for “Saratin (protein isolated from the saliva of the leech Hirudo medicinalis; 103 amino acids)”, the platelet binding on collagen type III coated surface pretreated with Saratin, whole human blood under flow (shear rate 1300 s-1) turned out to be 80% and the reduction in platelet deposition on collagen type III coated coverslips at a shear rate of 1300 s-1 came to 81%.
